# Patent US9187525B2, “Methods of treating ophthalmic diseases using NPR-B agonists” (Shire Orphan Therapies GmbH, dated 2015)
# Numbered stars: 1 amine (or outer) side, 2 acyl side, 3 side chain; on linkers, the order of the positions; unused ones are H or OH. Square brackets hold non-standard residues; d marks the D form. Primed or numbered codes have the meaning given here. Ends that are not written are not given here. * marks the point of attachment. Eao = rac-1-amino-2,3-dihydro-1H-indene-1-carboxylic acid, O=C(C1(N[*:1])CCc2ccccc21)[*:2]; abu(pip) = (R)-2-amino-4-(piperidin-1-yl)butanoic acid, O=C([C@@H](CCN1CCCCC1)N[*:1])[*:2]; Sni = (S)-nipecotic acid, O=C([C@H]1CCCN([*:1])C1)[*:2]; Egg = 2-Amino-3-piperidin-4-yl-propionic acid; Fhy = Amino-piperidin-3-yl-acetic acid; Hyp = O=C(O)[C@@H]1C[C@@H](O)CN1; AR‑314‑171 = not defined here; AR‑314‑172 = not defined here; AR‑385‑008 = not defined here; AR‑385‑017 = not defined here; AR‑385‑042 = not defined here; Aoc(2) = CCCCCC[C@H](N)C(=O)O; NMeL = CN[C@@H](CC(C)C)C(=O)O; AR‑385‑12 = not defined here; Aic = NC1(C(=O)O)Cc2ccccc2C1; orn(Me2) = not defined here; Octanoyl = CCCCCCCC(=O)*; Sni″ = not defined here; dHgl = not defined here; Az3 = not defined here; Che = not defined here; Fbz = not defined here; Rni = not defined here; hse = not defined here; leu = not defined here; mpa = not defined here; opa = not defined here; ppa = not defined here; Occ = octanoic acid
# T1: natriuretic peptide receptor-B (human)
# T1 chain: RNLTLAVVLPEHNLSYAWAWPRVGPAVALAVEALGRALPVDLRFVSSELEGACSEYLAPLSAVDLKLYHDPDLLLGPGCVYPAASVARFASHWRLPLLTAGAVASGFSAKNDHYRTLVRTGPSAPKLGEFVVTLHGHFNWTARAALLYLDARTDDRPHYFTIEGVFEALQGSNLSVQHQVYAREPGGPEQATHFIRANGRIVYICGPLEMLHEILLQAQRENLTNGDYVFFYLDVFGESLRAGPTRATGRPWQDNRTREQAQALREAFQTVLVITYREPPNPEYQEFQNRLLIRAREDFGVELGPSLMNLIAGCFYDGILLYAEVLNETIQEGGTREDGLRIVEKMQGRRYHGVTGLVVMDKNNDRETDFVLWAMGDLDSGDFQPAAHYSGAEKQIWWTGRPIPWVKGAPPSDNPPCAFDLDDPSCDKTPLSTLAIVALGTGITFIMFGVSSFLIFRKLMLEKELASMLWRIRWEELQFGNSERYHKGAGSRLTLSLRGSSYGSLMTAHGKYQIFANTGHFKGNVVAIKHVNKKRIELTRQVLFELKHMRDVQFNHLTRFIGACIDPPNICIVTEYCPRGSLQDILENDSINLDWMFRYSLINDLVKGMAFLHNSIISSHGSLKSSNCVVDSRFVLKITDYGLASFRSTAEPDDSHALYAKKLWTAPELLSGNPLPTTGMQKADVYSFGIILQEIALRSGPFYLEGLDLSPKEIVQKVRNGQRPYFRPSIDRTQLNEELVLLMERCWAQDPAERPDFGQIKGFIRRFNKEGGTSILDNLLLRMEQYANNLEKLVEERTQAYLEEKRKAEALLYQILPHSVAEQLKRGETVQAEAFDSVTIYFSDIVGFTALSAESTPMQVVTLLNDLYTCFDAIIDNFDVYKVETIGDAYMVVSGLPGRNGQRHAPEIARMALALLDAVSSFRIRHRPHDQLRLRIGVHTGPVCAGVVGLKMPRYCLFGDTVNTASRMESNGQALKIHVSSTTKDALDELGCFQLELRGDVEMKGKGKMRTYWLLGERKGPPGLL
# Biological target: T1, natriuretic peptide receptor-B
# Experiment: cell-based or functional assay
row,"EC50 group, cGMP in GTM-3 cells",Binder
1,≤ 5 µM,[Occ][Sni]F[Aic]L[Hyp][NMeL]DRI-NH2 [JAL-1893]
2,≤ 15 µM,[AR‑314‑171]F[leu]L[Hyp][NMeL]DRI-NH2 (reading uncertain; also: printed as (AR-314-171)-Phe-leu-Leu-Hyp-Nml-Asp-Arg-Ile-NH2) [JAL-1870-2]
3,≤ 5 µM,[Occ][Sni]F[metO2]L[Hyp][NMeL]DRI-NH2 [JAL-1885]
4,≤ 5 µM,[Occ][Sni]F[hse]L[Hyp][NMeL]DRI-NH2 (reading uncertain; also: printed as Occ-Sni-Phe-hse-Leu-Hyp-Nml-Asp-Arg-Ile-NH2) [JAL-1878]
5,≤ 5 µM,[Occ][Sni]F[orn(Me2)]L[Hyp][NMeL]SR[Che] (reading uncertain; also: printed as Occ-Sni-Phe-orn(Me2)-Leu-Hyp-Nml-Ser-Arg-Che) [JAL-1894]
6,≤ 1 µM,[Occ][Sni]F[AR‑385‑12]L[Hyp][NMeL]DRI-NH2 (reading uncertain; also: printed as Occ-Sni-Phe-(AR-385-12)-Leu-Hyp-Nml-Asp-Arg-Ile-NH2) [JAL-1877]
7,≤ 5 µM,H-[Aoc(2)][Sni]FLL[Hyp][NMeL]DRI-NH2 (not fully specified (residue 4); printed as H-Hgl-Sni-Phe-leu-Leu-Hyp-Nml-Asp-Arg-Ile-NH2) [JAL-1896]
8,≤ 5 µM,[Occ][Sni]F[AR‑385‑017]L[Hyp][NMeL]DRI-NH2 (reading uncertain; also: printed as Occ-Sni-Phe-(AR-385-017)-Leu-Hyp-Nml-Asp-Arg-Ile-NH2) [JAL-1886]
9,≤ 5 µM,[Occ][Sni]F[abu(pip)]L[Hyp][NMeL]DRI-NH2 [JAL-1879]
10,≤ 15 µM,[Occ][Az3]FGLKLDRI-NH2 (reading uncertain; also: printed as Occ-Az3-Phe-Gly-Leu-Lys-Leu-Asp-Arg-Ile-NH2) [JAL-0742]
11,≤ 15 µM,[AR‑385‑008][leu]L[Hyp][NMeL]DRI-NH2 (reading uncertain; also: printed as (AR-385-008)-leu-Leu-Hyp-Nml-Asp-Arg-Ile-NH2) [JAL-1873]
12,≤ 1 µM,[Occ][Sni]F[Egg]L[Hyp][NMeL]DRI-NH2 [JAL-1890]
13,≤ 5 µM,[Occ][Sni]F[mpa]L[Hyp][NMeL]DRI-NH2 (reading uncertain; also: printed as Occ-Sni-Phe-mpa-Leu-Hyp-Nml-Asp-Arg-Ile-NH2) [JAL-1888]
14,≤ 5 µM,[Occ][Sni″]FGLKLDRI-NH2 (reading uncertain; also: printed as Occ-Sni-Phe-Gly-Leu-Lys-Leu-Asp-Arg-Ile-NH2) [JAL-0743]
15,≤ 5 µM,H-[dHgl][Sni]FLL[Hyp][NMeL]DRI-NH2 (not fully specified (residue 4); printed as H-hgl-Sni-Phe-leu-Leu-Hyp-Nml-Asp-Arg-Ile-NH2; reading uncertain) [JAL-1897]
16,≤ 5 µM,[AR‑314‑172][leu]L[Hyp][NMeL]DRI-NH2 (reading uncertain; also: printed as (AR-314-172)-leu-Leu-Hyp-Nml-Asp-Arg-Ile-NH2) [JAL-1874]
17,≤ 5 µM,[Occ][Sni]F[Fbz]L[Hyp][NMeL]DRI-NH2 (reading uncertain; also: printed as Occ-Sni-Phe-Fbz-Leu-Hyp-Nml-Asp-Arg-Ile-NH2) [JAL-1881]
18,≤ 5 µM,[Occ][Sni]F[ppa]L[Hyp][NMeL]DRI-NH2 (reading uncertain; also: printed as Occ-Sni-Phe-ppa-Leu-Hyp-Nml-Asp-Arg-Ile-NH2) [JAL-1889]
19,≤ 5 µM,[Occ][Sni]F[opa]L[Hyp][NMeL]DRI-NH2 (reading uncertain; also: printed as Occ-Sni-Phe-opa-Leu-Hyp-Nml-Asp-Arg-Ile-NH2) [JAL-1887]
20,≤ 5 µM,Octanoyl-[Sni]FHL[Hyp][NMeL]DRI-NH2 (not fully specified (some residues); printed as Occ-Sni-Phe-his-Leu-Hyp-Nml-Asp-Arg-Ile-NH2) [JAL-1884]
21,≤ 5 µM,[Occ][Sni]F[Eao]L[Hyp][NMeL]DRI-NH2 [JAL-1892]
22,≤ 15 µM,Octanoyl-[Sni]FTL[Hyp][NMeL]DRI-NH2 (not fully specified (some residues); printed as Occ-Sni-Phe-thr-Leu-Hyp-Nml-Asp-Arg-Ile-NH2) [JAL-1883]
23,≤ 5 µM,[AR‑385‑042][leu]L[Hyp][NMeL]DRI-NH2 (reading uncertain; also: printed as (AR-385-042)-leu-Leu-Hyp-Nml-Asp-Arg-Ile-NH2) [JAL-1880]
24,≤ 1 µM,[Occ][Sni]F[orn(Me2)]L[Hyp][NMeL]TR[Che] (reading uncertain; also: printed as Occ-Sni-Phe-orn(Me2)-Leu-Hyp-Nml-Thr-Arg-Che) [JAL-1895]
25,≤ 5 µM,[Occ][Sni]F[Fhy]L[Hyp][NMeL]DRI-NH2 [JAL-1882]
26,≤ 15 µM,[Occ][Rni]FGLKLDRI-NH2 (reading uncertain; also: printed as Occ-Rni-Phe-Gly-Leu-Lys-Leu-Asp-Arg-Ile-NH2) [JAL-0744]
